# In US7998460B2, “Prevention of deficits in neurogenesis with anti-inflammatory agents” (The Board of Trustees of the Leland Stanford Junior …, priority 2003, dated 2011):
# Tests used:
# Type in all cases: cell-based, rat
# [1] = test system: adult hippocampus-derived neural precursor cells; assay: In vitro neuronal differentiation (doublecortin) of hippocampal neural progenitor cells, 60 hours; conditions: 60 hours
# Description: Neuroinflammation could inhibit neurogenesis by a variety of mechanisms, including stimulation of the HPA axis with subsequent elevation of gluccocorticoids, alterations in the relationships between progenitor cells and cells of the neuro-vasculature, or direct effects of activated microglia on the precursor cells. To determine the extent to which microglial activation might directly affect neural stem/progenitor cells, microglia were stimulated in vitro with LPS. LPS is a potent activator of microglia and up-regulates the elaboration of pro-inflammatory cytokines, including IL-6 and TNF-α. LPS-stimulated or resting microglia were then co-cultured with normal neural stem cells from the hippocampus under conditions that typically stimulate the differentiation of 30 to 40% of the progenitor cells into immature Dcx-expressing neurons (normalized to a value of 1 in FIG. 2A, control). Neurogenesis in the presence of microglia was assessed as the increase or decrease in Dcx-expressing cells relative to control. Co-culture with activated, but not resting, microglia decreased in vitro neurogenesis to approximately half of control levels (FIG. 2A). LPS added directly to precursor cells had no effect on neurogenesis.
# To determine if this effect was due to soluble factors or due to cell-cell contact, hippocampal precursor cells were differentiated in the presence of media pre-conditioned by resting or activated microglia.
# Activated microglia produce the potent pro-inflammatory cytokines interleukin-1β (IL-1β), tumor necrosis factor-α (TNF-α), interferon-γ (INF-γ) and interleukin-6 (IL-6). Progenitor cells were allowed to differentiate in the presence of each cytokine and the relative expression of Dcx was scored after 60 hours. […] Addition of neutralizing anti-IL-6 antibody to CM from activated microglia was able to fully restore in vitro neurogenesis (FIG. 2A). This implicated IL-6 as a key inhibitor of neurogenesis in microglial CM. […] In contrast to neurogenesis, gliogenesis was unaffected by IL-6 exposure as indicated by the lack of change in the number of cells expressing the astrocyte (glial fibrillary acidic protein, GFAP) or early oligodendrocyte (NG2) markers relative to control cultures (FIG. 2E). The hippocampal precursors used in this study do express the IL-6 receptor, as confirmed by RT-PCR (FIG. 5).
# Progenitor Cell Culture Adult hippocampus-derived neural precursor cells were isolated from adult rat hippocampus and cultured as previously described. Briefly, adult female Fisher-344 rats were deeply anesthetized with sodium pentobarbital and were dissected immediately. Hippocampi were enzymatically dissociated with papain (2.5 U/ml; Worthington, Freehold, N.J.)-dispase II (1 U/ml; Boehringer Mannheim, Indianapolis, Ind.)-DNase I (250 U/ml, Worthington) solution. Digested tissue was then washed with DMEM-10% fetal calf serum (FCS) and subsequently mixed with PBS-equilibrated Percoll solution to a final concentration of 35% Percoll. The Percoll solution was made by mixing nine parts of Percoll (Amersham Pharmacia Biotech, Uppsala, Sweden) with one part of 10× PBS. The cell suspension was then fractionated by centrifugation for 10 min at 1000×gravity. Floating myelin and tissue debris were discarded and the cell pellet re-suspended in 65% Percoll solution and fractionated again by centrifugation for 10 min at 1000×g. The floating neural precursors were collected, washed free of Percoll, and plated onto poly-L-ornithine/laminin-coated dishes in DMEM/F12 (1:1) containing 10% FCS medium for 24 hrs; then medium was replaced with serum-free growth medium consisting of DMEM/F12 (1:1) supplemented with N2 supplement (Life Technologies, Gaithersburg, Md.) and 20 ng/ml of human recombinant FGF-2 (Peprotech, Rocky Hill, N.J.). Cell lines were labeled via infection with replication deficient GFP-expressing recombinant retrovirus LZRS-CAMut4GFP. […]
# [2] = test system: adult hippocampus-derived neural precursor cells; assay: Proliferation (BrdU) and survival (TUNEL) assays in differentiating neural precursor cultures
# Procedure: Proliferation and survival assays BrdU was added to the culture media from hour 24 to hour 48 of the 60 hour paradigm. Immunocytochemistry and confocal microscopy was then used to determine the fraction of GFP+ cells that labeled with BrdU, TUNEL, or type III β-tubulin or doublecortin. TUNEL staining was performed with Apoptag Red (Serologicals, Norcross, Ga.). The fraction of total (DAPI+) nuclei that were TUNEL+ were determined, as well as the fraction of doublecortin positive cells that were also TUNEL+.
# Hes1 mRNA = assay: Real-time quantitative RT-PCR of Hes1 in neural precursors; conditions: 60 hours exposure
# Description: Signaling via gp130, the co-receptor of the IL-6 receptor, stimulates the Notch1 pathway, resulting in an increase in expression of the mammalian homolog of hairy-enhancer-of-split, Hes 1, transcription factor and antagonism of pro-neural basic helix-loop-helix (bHLH) genes and hippocampal neurogenesis during development. To determine if IL-6 treatment of adult stem cells leads to an increase in Hes 1 consistent with the reduction in neuronal cell fate, “real-time” quantitative RT-PCR was performed on total RNA extracted from neural precursors exposed for 60 hours to activated microglial CM or IL-6. Both CM and IL-6 caused a dramatic increase in Hes1 mRNA expression (3.2- and 7.7-fold increase respectively, relative to control).
# Total RNA isolation, cDNA synthesis, and SYBR Green real-time quantitative RT-PCR. […] Quantitative SYBR Green real time PCR was carried out as described previously. […] Quantitative RT-PCR was performed on ABI 5700 PCR instrument (PerkinElmer Life Sciences) by using 3-stage program parameters provided by the manufacturer as follows; 2 min at 50° C., 10 min at 95° C., and then 40 cycles of 15 s at 95° C. and 1 min at 60° C. […] Each sample was tested in five copies with quantitative PCR, and samples obtained from three independent experiments were used to calculate the means and standard deviations. […]
molecule,measurement,setting,value
IL-6: recombinant rat interleukin-6 (protein) FPTSQVRRGDFTEDTTPNRPVYTTSQVGGLITHVLWEIVEMRKELCNGNSDCMNNDDALAENNLKLPEIQRNDGCYQTGYNQEICLLKISSGLLEYHSYLEYMKNNLKDNKKDKARVLQRDTETLIHIFNQEVKDLHKIVLPTPISNALLTDKLESQKEWLRTKTIQFILKSLEEFLKVTLRSTRQT,gliogenesis (cells expressing GFAP or NG2 relative to control),[1]; IL-6 50 ng/ml,unaffected
same,decrease of in vitro neurogenesis (relative expression of Dcx),[1]; recombinant IL-6 50 ng/ml or TNF-α 20 ng/ml,approximately 50%
same,fraction of TUNEL-positive apoptotic cells,"[2]; mean+/-s.e.m., differentiating culture, IL-6 50 ng/ml",0.068+/−0.005
same,fraction of TUNEL-positive cells that co-labeled with doublecortin,[2]; mean+/-sem,0.83+/−0.02
same,mitotic index (fraction of cells labeled with BrdU in 24 hours),[2]; stem cell cultures,95+/−1.7%
same,BrdU labeling within the neuronal progeny,[2]; subset of spontaneously forming immature neurons,82+/−1.6%
same,increase in Hes1 mRNA expression relative to control,Hes1 mRNA,7.7 fold
